T1: IL-6R-Fc 항원 (IL-6R full domain 단백질) (human, UniProt P08887 20-365)
T1 construct: domain: IL-6R full domain; Expressed transiently in HEK293E and purified from the supernatant; also called IL-6R 항원; not shown: Fc part from expression vector pYK 604
T1 sequence (looked up): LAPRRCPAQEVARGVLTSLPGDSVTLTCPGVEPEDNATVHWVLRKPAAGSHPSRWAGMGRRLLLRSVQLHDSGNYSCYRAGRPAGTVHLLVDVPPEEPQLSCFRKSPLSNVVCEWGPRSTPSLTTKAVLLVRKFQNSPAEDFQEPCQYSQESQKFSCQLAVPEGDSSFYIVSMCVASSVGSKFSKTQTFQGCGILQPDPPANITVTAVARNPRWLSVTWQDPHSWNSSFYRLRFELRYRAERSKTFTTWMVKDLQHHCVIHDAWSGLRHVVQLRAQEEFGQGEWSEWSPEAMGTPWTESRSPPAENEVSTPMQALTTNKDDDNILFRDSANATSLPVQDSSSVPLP

B1: 모노 파아지 클론 F2 (scFv on phage) (scFv)
chain: DVHSQVQLVESGAEVKKPGASVKVSCKASGYTFTNYYMHWVRQAPGQGLEWMGIINPSGGNTGYAQKFQGRVTMTRDMSTSTAYMELSSLRSEDTAVYYCARGLPWGENGLDVWGQGTTVTVSSDVHSQLVLTQPSSVSGAPGQTVTISCTGSSSNIGAGYDVHWYQQLPGTAPKVLIYGDSDRPSGVPDRFSGSKSATSASLAITGLQAEDEADYYCQSYDSSLSAYVFGTGTKVTVL
B2: 모노 파아지 클론 A7 (scFv on phage) (scFv)
chain: DVHSQMQLVESGGGLVQPGTSLRLSCAASGFKFEDYAMHWVRQAPGKGLEWVSGVSWNSGTIAYVDSVKGRFTISRDNAKNSLYLQMNSLRAEDTAVYYCARDFTYFYESSGYYAFDLWGQGTMVTVSSDVHSQLVLTQPPSVSGAPGQRVTISCTGTNSNIGAGYDVHWYQQVPGTTPKLLIYGNTNRPSGVPDRFSGSKSGTSASLAITGLQAEDGGDYYCQSFDSSLTGSVFGTGTKVTVL
B3: 모노 파아지 클론 D2 (scFv on phage) (scFv)
chain: DVHSQVQLVESGAEVKKPGSSVKVSCKGSGDTFPNYAINWVRQAPGQGPEWMGRIIPMLGTSDYAEKFQGRVTITADKSTNTAYMGLNSLRSEDTAVYYCVKGPRYYGTDSYYLEKWGQGTMVTVSSDVHSQLVLTQPPSVSGAPGQTVTISCTGPTIGAGYDVHWYQQLPGAAPKLLIYGNLNRPSGVPDRFSGSKSGTSASLAITDLQAEDEADYYCHTYDSSLSGSWVFGGGTKLTVL
B4: 모노 파아지 클론 B10 (scFv on phage) (scFv)
chain: DVHSQVQLVESGGGLVQPGGSLRLSCAASGFIFDDYAMFWVRQVPGKGLEWVAGINWNGNGIGYGDSVRGRFIISRDNARNSLDLQMNSLRAEDTAVYYCARPSLYGGNSEFDLWGQGTLVTVSSDVHSQLVLTQPPSVSGAPGQTVTISCTGPTIGAGYDVHWYQQLPGAAPKLLIYGNLNRPSGVPDRFSGSKSGTSASLAITDLQAEDEADYYCHTYDSSLSGSWVFGGGTKLTVL
B5: 항 IL-6R 단클론 항체 A7 (IgG) (antibody, V domains shown)
VH: QMQLVESGGGLVQPGTSLRLSCAASGFKFEDYAMHWVRQAPGKGLEWVSGVSWNSGTIAYVDSVKGRFTISRDNAKNSLYLQMNSLRAEDTAVYYCARDFTYFYESSGYYAFDLWGQGTMVTVSS
VL: SQLVLTQPPSVSGAPGQRVTISCTGTNSNIGAGYDVHWYQQVPGTTPKLLIYGNTNRPSGVPDRFSGSKSGTSASLAITGLQAEDGGDYYCQSFDSSLTGSVFGTGTKVTVL
notes: Phage clone converted to whole IgG
B6: 항 IL-6R 단클론 항체 B10 (IgG) (antibody, V domains shown)
VH: QVQLVESGGGLVQPGGSLRLSCAASGFIFDDYAMFWVRQVPGKGLEWVAGINWNGNGIGYGDSVRGRFIISRDNARNSLDLQMNSLRAEDTAVYYCARPSLYGGNSEFDLWGQGTLVTVSS
VL: SQLVLTQPPSVSGAPGQTVTISCTGPTIGAGYDVHWYQQLPGAAPKLLIYGNLNRPSGVPDRFSGSKSGTSASLAITDLQAEDEADYYCHTYDSSLSGSWVFGGGTKLTVL
notes: as for B5
B7: 항 IL-6R 단클론 항체 D2 (IgG) (antibody, V domains shown)
VH: QVQLVESGAEVKKPGSSVKVSCKGSGDTFPNYAINWVRQAPGQGPEWMGRIIPMLGTSDYAEKFQGRVTITADKSTNTAYMGLNSLRSEDTAVYYCVKGPRYYGTDSYYLEKWGQGTMVTVSS
VL: B6 VL
notes: as for B5
B8: 항 IL-6R 단클론 항체 F2 (IgG) (antibody, V domains shown)
VH: QVQLVESGAEVKKPGASVKVSCKASGYTFTNYYMHWVRQAPGQGLEWMGIINPSGGNTGYAQKFQGRVTMTRDMSTSTAYMELSSLRSEDTAVYYCARGLPWGENGLDVWGQGTTVTVSS
VL: SQLVLTQPSSVSGAPGQTVTISCTGSSSNIGAGYDVHWYQQLPGTAPKVLIYGDSDRPSGVPDRFSGSKSATSASLAITGLQAEDEADYYCQSYDSSLSAYVFGTGTKVTVL
notes: as for B5

Target: T1, IL-6R-Fc 항원 (IL-6R full domain 단백질)
Assay: mono phage ELISA, antigen coated 100 ng/well, anti-M13-HRP

Row | Binder | OD 490 nm (IL-6R full)
1 | B1 | 2.86 OD490
2 | B2 | 2.48 OD490
3 | B3 | 2.34 OD490
4 | B4 | 2.1 OD490

Target: T1, IL-6R-Fc 항원 (IL-6R full domain 단백질)
Assay: ELISA, coated IL-6R 100 ng/well, anti-Fab-HRP

Row | Binder | OD 490 nm at 0.02441 nM antibody | OD 490 nm at 0.04883 nM antibody | OD 490 nm at 0.09766 nM antibody | OD 490 nm at 0.19531 nM antibody | OD 490 nm at 0.39063 nM antibody | OD 490 nm at 0.78125 nM antibody | OD 490 nm at 1.5625 nM antibody | OD 490 nm at 3.125 nM antibody | OD 490 nm at 6.25 nM antibody | OD 490 nm at 12.5 nM antibody
5 | B5 | 0.514 OD490 | 0.498 OD490 | 0.497 OD490 | 0.546 OD490 | 0.618 OD490 | 0.782 OD490 | 1.17 OD490 | 1.64 OD490 | 2.13 OD490 | 2.58 OD490
6 | B6 | 0.468 OD490 | 0.451 OD490 | 0.462 OD490 | 0.429 OD490 | 0.476 OD490 | 0.5 OD490 | 0.607 OD490 | 0.761 OD490 | 1.04 OD490 | 1.39 OD490
7 | B7 | 0.449 OD490 | 0.451 OD490 | 0.45 OD490 | 0.469 OD490 | 0.473 OD490 | 0.479 OD490 | 0.584 OD490 | 0.719 OD490 | 0.981 OD490 | 1.47 OD490
8 | B8 | 0.535 OD490 | 0.584 OD490 | 0.743 OD490 | 1.01 OD490 | 1.41 OD490 | 1.9 OD490 | 2.43 OD490 | 2.72 OD490 | 2.71 OD490 | 2.92 OD490

Same assay, conditions: not given

Row | Binder | OD 490 nm at 25 nM antibody | OD 490 nm at 50 nM antibody
9 | B5 | 2.84 OD490 | 3.1 OD490
10 | B6 | 1.78 OD490 | 2.09 OD490
11 | B7 | 1.94 OD490 | 2.38 OD490
12 | B8 | 2.89 OD490 | 2.99 OD490

Target: T1, IL-6R-Fc 항원 (IL-6R full domain 단백질)
Assay: ELISA titration on coated IL-6R, anti-Fab-HRP

Row | Binder | Kd
13 | B5 | 2.3 nM
14 | B6 | 4.3 nM
15 | B7 | 7.5 nM
16 | B8 | 0.35 nM

Target: Fc
Assay: mono phage ELISA, Fc coated 100 ng/well, anti-M13-HRP

Row | Binder | OD 490 nm (Fc)
17 | B1 | 0.0405 OD490
18 | B2 | 0.0421 OD490
19 | B3 | 0.0415 OD490
20 | B4 | 0.0406 OD490

Target: a-Myc
Assay: mono phage ELISA, a-Myc coated 100 ng/well, anti-M13-HRP

Row | Binder | OD 490 nm (a-myc)
21 | B1 | 0.287 OD490
22 | B2 | 0.0797 OD490
23 | B3 | 0.303 OD490
24 | B4 | 0.113 OD490

Target: T1, IL-6R-Fc 항원 (IL-6R full domain 단백질)
Assay: mono phage ELISA, ratio of OD on IL-6R full to OD on a-myc

Row | Binder | Ratio (IL-6R full / a-myc)
25 | B1 | 9.96
26 | B2 | 31.1
27 | B3 | 7.71
28 | B4 | 18.6

Target: T1, IL-6R-Fc 항원 (IL-6R full domain 단백질)
Assay: ELISA (summary table; same value as the 3rd table)

Row | Binder | Kd
29 | B5 | 2.3 nM
30 | B6 | 4.3 nM
31 | B7 | 7.5 nM
32 | B8 | 0.35 nM

Reference: patent KR20130140557A (dated 2013)
